Reference: US20250042970A1 (AURINIA PHARMACEUTICALS, published 2025)

T1: FLAG-tagged cynomolgous APRIL (cynomolgus monkey, UniProt A0ACM8R0G4 110-250 (rhesus entry))
T1 construct: FLAG-tagged, expressed with TPA signal peptide; also called cyAPRIL
T1 sequence: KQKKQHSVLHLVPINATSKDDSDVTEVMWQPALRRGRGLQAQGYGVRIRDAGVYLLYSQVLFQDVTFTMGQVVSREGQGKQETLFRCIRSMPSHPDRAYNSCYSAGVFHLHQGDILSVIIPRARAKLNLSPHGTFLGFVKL


What was measured:
[1] = target: T2, FLAG-tagged human BAFF (human, UniProt Q9Y275 134-285, limits assumed); assay: KinExA
T2 construct: used in BIACORE (Ex. 9) and KINEXA (Ex. 11); also called huBAFF
Protocol: Equilibrium measurements were performed using FLAG-tagged, recombinant huBAFF and huAPRIL ligands. Fixed ligand concentrations of human BAFF or human APRIL were incubated with serial dilutions of the variant BCMA ECD-Ig fusion polypeptides, and free ligand was detected in a KINEXA 3200 Instrument. variant BCMA ECD-Ig fusion polypeptides were first diluted in equilibration buffer (1×PBS, pH 7.4, 1 mg/ml BSA) to a range of concentrations from 10 nM to 100 fM. The linear portion of the dilution series was typically 2-fold. Ligands were diluted in equilibration buffer to fixed concentrations ranging from 5 to 20 pM and then incubated with the variant BCMA-Ig dilutions in total reaction volumes ranging from 4.5 to 15 ml. Samples were incubated at room temperature for 48-72 hours to reach equilibrium. For each data point, a fresh column of 850 μl of bead slurry coated with Variant BAv-238475-Ig was introduced into the KINEXA flow cell. Equilibrated samples ranging from 1 to 5 ml reaction volume were injected at a flow rate of 0.25 ml/min. […] The DyLight 649 fluorescent signal was detected using the red filter set (620/30 nanometer excitation filter, 670/40 nanometer emission filter, 645 nanometer dichroic filter) on the KinExA instrument and converted to a voltage signal that was directly proportional to the concentration of free ligand in the equilibrated sample.
The various fusion proteins described above were expressed and purified as described previously (Examples 2 and 3 for the CET1019AS based plasmids and Examples 7 and 8 for the pcDNA based plasmids). […] The BAv9-1-Ig Fc proteins typically exist in solution as a dimeric fusion protein. The purified fusion proteins were assayed for binding activity using BIACORE (Example 9) and KINEXA (Example 11) assays.

[2] = target: T2, FLAG-tagged human BAFF; assay: BIACORE SPR
Protocol: (§1) For human BAFF, cynomolgus monkey APRIL, and mouse APRIL measurements, mouse monoclonal antibody (IgG1) anti-FLAG M2 (Sigma Aldrich, Cat. No. F1804) was immobilized on CM3 sensor chips (GE Healthcare, Cat. No. BR-1005-41) according to the manufacturer's protocol. Antibody was diluted to 30 μg/ml in immobilization buffer (10 mM pH 5±0.20; GE Healthcare; GE Healthcare, Catalog No. BR-1003-51). […] Unreacted sites were quenched with 35 μl of 1M ethanolamine-HCl, pH 8.5 (GE Healthcare, GE Healthcare, Cat. No. BR-1000-50). This procedure typically yielded 3,000-4,000 response units (RU) of coupled antibody.
(§2) The fusion polypeptides were diluted in HBS-EP buffer and flowed over ligand-coated sensor chips. The variant BCMA-Ig and surrogate control fusion proteins were injected at three concentrations (1.5 nM, 15 nM, and 150 nM at 30 μl/min for 2 minutes per association phase) in a single binding cycle, followed by a 20 minute incubation with HBS-EP buffer containing no protein at the same flow rate. A similar protocol was followed for Z-TACI-Ig, except that the injections were at 4.5 nM, 45 nM, and 450 nM.
(§3) Sequence optimization involved generating revertants from the variant BCMA ECD-Ig molecules using standard site-directed mutagenesis methods such as by SOEing as described herein above. Single as well as multiple revertants from twelve different variant-BCMA-pIg18 were generated, cloned in the pcDNA3.1 vector (Life Technologies, as described in Example 6), expressed and purified as described in Examples 6-8. The resulting proteins were assayed for their binding characteristics using Surface Plasmon Resonance as described in Example 9.

[3] = target: T1, FLAG-tagged cynomolgous APRIL; assay: BIACORE SPR
Protocol: as §1, §2, §3

Kd [1] [pM] | fold improvement over control [2] [fold] | fold improvement over control [3] [fold] | Binder
0.291 | – | – | AGQCSQNEYFDHLIRACIPCQLRCSSNTPPLTCQRYCNAGVTNSVGGGGS (Fc fusion, human, domain: Fc; not shown: PIg23: PIg22 Fc with valine at 178 mutated to methionine) [BAv9-1-5L-pIg23]
– | 5.5 | 0.5 | Variant 50237844-Ig (Fc fusion, human, domain: Fc; also called Parent 7) AGQCSQSEYYDRLIRACIPCQLRCSSNNPPVICQRYCNAGVTNSVKGTNAERKSSVECPPSPAPPVAGPSVFLFPPKPKDTLMISRTPEVTCVVVDVSHEDPEVQFNWYVDGVEVHNAKTKPREEQFNSTFRVVSVLTVVHQDWLNGKEYKCKVSNKGLPAPIEKTISKTKGQPREPQVYTLPPSREEMTKNQVSLTCLVKGFYPSDISVEWESNGQPENNYKTTPPMLDSDGSFFLYSKLTVDKSRWQQGNVFSCSVMHEALHNHYTQKSLSLSPGK
– | 10.1 | 0.6 | Variant 50239978-Ig (Fc fusion, human, domain: Fc; also called Parent 12) ARQCSPNEYYDSLIRACVPCQLRCSSNNPPVTCQRYCNAGVTNSVKGTNAERKSSVECPPSPAPPVAGPSVFLFPPKPKDTLMISRTPEVTCVVVDVSHEDPEVQFNWYVDGVEVHNAKTKPREEQFNSTFRVVSVLTVVHQDWLNGKEYKCKVSNKGLPAPIEKTISKTKGQPREPQVYTLPPSREEMTKNQVSLTCLVKGFYPSDISVEWESNGQPENNYKTTPPMLDSDGSFFLYSKLTVDKSRWQQGNVFSCSVMHEALHNHYTQKSLSLSPGK
– | 5.5 | 0.3 | Variant 50237854-Ig (Fc fusion, human, domain: Fc; also called Parent 4) AGQCSQNEYFDHLIRACIPCDVRCSSNNPPVTCQRYCNAGVTNSVKGTNAERKSSVECPPSPAPPVAGPSVFLFPPKPKDTLMISRTPEVTCVVVDVSHEDPEVQFNWYVDGVEVHNAKTKPREEQFNSTFRVVSVLTVVHQDWLNGKEYKCKVSNKGLPAPIEKTISKTKGQPREPQVYTLPPSREEMTKNQVSLTCLVKGFYPSDISVEWESNGQPENNYKTTPPMLDSDGSFFLYSKLTVDKSRWQQGNVFSCSVMHEALHNHYTQKSLSLSPGK
– | 7.6 | 1.3 | Variant 50238494-Ig (Fc fusion, human, domain: Fc; also called Parent 11) AGQCSQSEYYDRLIHACVPCQLRCSSNNPPATCQRYCNAGVTNSVKGTNAERKSSVECPPSPAPPVAGPSVFLFPPKPKDTLMISRTPEVTCVVVDVSHEDPEVQFNWYVDGVEVHNAKTKPREEQFNSTFRVVSVLTVVHQDWLNGKEYKCKVSNKGLPAPIEKTISKTKGQPREPQVYTLPPSREEMTKNQVSLTCLVKGFYPSDISVEWESNGQPENNYKTTPPMLDSDGSFFLYSKLTVDKSRWQQGNVFSCSVMHEALHNHYTQKSLSLSPGK
– | 5.5 | 0.9 | Variant 50239698-Ig (Fc fusion, human, domain: Fc; also called Parent 5) ARQCSQNEYYDRLLRSCVPCHVRCSSNNPPVTCQRYCNAGVTNSVKGTNAERKSSVECPPSPAPPVAGPSVFLFPPKPKDTLMISRTPEVTCVVVDVSHEDPEVQFNWYVDGVEVHNAKTKPREEQFNSTFRVVSVLTVVHQDWLNGKEYKCKVSNKGLPAPIEKTISKTKGQPREPQVYTLPPSREEMTKNQVSLTCLVKGFYPSDISVEWESNGQPENNYKTTPPMLDSDGSFFLYSKLTVDKSRWQQGNVFSCSVMHEALHNHYTQKSLSLSPGK
– | 4.5 | 0.2 | Variant 50238504R-Ig (Fc fusion, human, domain: Fc; also called Parent 8) AGQCSQNEYYDRLIRACLPCHVRCSSNTPPATCQRYCNAGVTNSVKGTNAERKSSVECPPSPAPPVAGPSVFLFPPKPKDTLMISRTPEVTCVVVDVSHEDPEVQFNWYVDGVEVHNAKTKPREEQFNSTFRVVSVLTVVHQDWLNGKEYKCKVSNKGLPAPIEKTISKTKGQPREPQVYTLPPSREEMTKNQVSLTCLVKGFYPSDISVEWESNGQPENNYKTTPPMLDSDGSFFLYSKLTVDKSRWQQGNVFSCSVMHEALHNHYTQKSLSLSPGK
– | 6.4 | 0.5 | Variant 50238779-Ig (Fc fusion, human, domain: Fc; also called Parent 1) AQQCSQNEYFDRLVNSCVPCRLRCSSNNPPLTCQHYCNAGVTNSVKGTNAERKSSVECPPSPAPPVAGPSVFLFPPKPKDTLMISRTPEVTCVVVDVSHEDPEVQFNWYVDGVEVHNAKTKPREEQFNSTFRVVSVLTVVHQDWLNGKEYKCKVSNKGLPAPIEKTISKTKGQPREPQVYTLPPSREEMTKNQVSLTCLVKGFYPSDISVEWESNGQPENNYKTTPPMLDSDGSFFLYSKLTVDKSRWQQGNVFSCSVMHEALHNHYTQKSLSLSPGK
– | 9.3 | 0.3 | Variant 50239040-Ig (Fc fusion, human, domain: Fc; also called Parent 10) ARQCSPSEYYDHLIRSCVPCQLRCSSNTPPVTCQRYCDAGVTNSVKGTNAERKSSVECPPSPAPPVAGPSVFLFPPKPKDTLMISRTPEVTCVVVDVSHEDPEVQFNWYVDGVEVHNAKTKPREEQFNSTFRVVSVLTVVHQDWLNGKEYKCKVSNKGLPAPIEKTISKTKGQPREPQVYTLPPSREEMTKNQVSLTCLVKGFYPSDISVEWESNGQPENNYKTTPPMLDSDGSFFLYSKLTVDKSRWQQGNVFSCSVMHEALHNHYTQKSLSLSPGK
– | 7.1 | 0.4 | Variant 50237847-Ig (Fc fusion, human, domain: Fc; also called Parent 3) AGQCSQNEYYDHLLRACVSCHVRCSSNNPPAICQRYCNAGVTNSVKGTNAERKSSVECPPSPAPPVAGPSVFLFPPKPKDTLMISRTPEVTCVVVDVSHEDPEVQFNWYVDGVEVHNAKTKPREEQFNSTFRVVSVLTVVHQDWLNGKEYKCKVSNKGLPAPIEKTISKTKGQPREPQVYTLPPSREEMTKNQVSLTCLVKGFYPSDISVEWESNGQPENNYKTTPPMLDSDGSFFLYSKLTVDKSRWQQGNVFSCSVMHEALHNHYTQKSLSLSPGK
– | 6.4 | 0.7 | Variant 50240054-Ig (Fc fusion, human, domain: Fc; also called Parent 2) AQQCSPNEYFDRLIRACIPCQLRCSSNTPPVTCQRYCNTGVTNSVKGTNAERKSSVECPPSPAPPVAGPSVFLFPPKPKDTLMISRTPEVTCVVVDVSHEDPEVQFNWYVDGVEVHNAKTKPREEQFNSTFRVVSVLTVVHQDWLNGKEYKCKVSNKGLPAPIEKTISKTKGQPREPQVYTLPPSREEMTKNQVSLTCLVKGFYPSDISVEWESNGQPENNYKTTPPMLDSDGSFFLYSKLTVDKSRWQQGNVFSCSVMHEALHNHYTQKSLSLSPGK
